Our source for the Kd values is patent publication US20160319361, “OLIGONUCLEOTIDE PROBES AND USES THEREOF” (CARIS LIFE SCIENCES SWITZERLAND HOLDINGS GMBH, published 2016).

In this data set the target is T1, EpCAM (UniProt P16422 P16422:24-265).
T1 sequence: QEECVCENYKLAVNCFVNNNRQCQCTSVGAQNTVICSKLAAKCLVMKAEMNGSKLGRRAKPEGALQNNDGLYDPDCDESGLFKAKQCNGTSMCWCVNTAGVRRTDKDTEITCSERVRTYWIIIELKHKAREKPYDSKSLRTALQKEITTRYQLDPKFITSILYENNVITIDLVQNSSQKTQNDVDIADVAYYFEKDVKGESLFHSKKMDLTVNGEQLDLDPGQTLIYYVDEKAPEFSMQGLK
In words: SPR; immobilized biotinylated aptamer, EpCAM analyte; HBS-EP+ buffer. To be noted: label: biotin via tail. How it is done:
FIG. 5 illustrates results from a binding assay showing the binding affinity of an exemplary aptamer (Aptamer ID BTX176881 (SEQ ID NO: 3)) to the target EpCAM protein at various target concentrations. The aptamer to be tested is fixed to a substrate using a biotin tail and is incubated with various concentrations of target (125, 250 and 500 nM). The test is performed on a surface plasmon resonance machine (SPR). The SPR machine detects association and disassociation of the aptamer and the target. Target is applied until the association and disassociation events are equal, resulting in a plateau of the curve. The equations describing the curve at each concentration can then be used to calculate the KD of the aptamer (see Table 5).
The Biacore 200 control software is programmed with the following conditions: Solution: HBS-EP+ Buffer; Number of cycles: 3; Contact time: 120s; Flow rate: 30 μl/min; Dissociation time: 300s; Solution: Glycine-HCl pH 2.5; Contact time: 120s; Flow rate: 20 μl/min; Stabilization period: 0s. The binding affinities of these aptamers are then measured using the SPR assay above, or an alternate in vitro assay assessing the aptamer for a desired function.
(SPR reads the build-up and loss of mass on a sensor chip optically.)

With CCCGATTTTGGTACCGCGGGGATCCGCGTCTG (ssDNA) [BTX176881], the Kd (as a rule, the constant that tells how readily two partners part at equilibrium) came out at 8.4 nM.
